Earlier results, collected in publication PMC12564133.

Target: BKCa channel (UniProt Q12791)
Sequence of UniProt Q12791 (Q12791 whole entry): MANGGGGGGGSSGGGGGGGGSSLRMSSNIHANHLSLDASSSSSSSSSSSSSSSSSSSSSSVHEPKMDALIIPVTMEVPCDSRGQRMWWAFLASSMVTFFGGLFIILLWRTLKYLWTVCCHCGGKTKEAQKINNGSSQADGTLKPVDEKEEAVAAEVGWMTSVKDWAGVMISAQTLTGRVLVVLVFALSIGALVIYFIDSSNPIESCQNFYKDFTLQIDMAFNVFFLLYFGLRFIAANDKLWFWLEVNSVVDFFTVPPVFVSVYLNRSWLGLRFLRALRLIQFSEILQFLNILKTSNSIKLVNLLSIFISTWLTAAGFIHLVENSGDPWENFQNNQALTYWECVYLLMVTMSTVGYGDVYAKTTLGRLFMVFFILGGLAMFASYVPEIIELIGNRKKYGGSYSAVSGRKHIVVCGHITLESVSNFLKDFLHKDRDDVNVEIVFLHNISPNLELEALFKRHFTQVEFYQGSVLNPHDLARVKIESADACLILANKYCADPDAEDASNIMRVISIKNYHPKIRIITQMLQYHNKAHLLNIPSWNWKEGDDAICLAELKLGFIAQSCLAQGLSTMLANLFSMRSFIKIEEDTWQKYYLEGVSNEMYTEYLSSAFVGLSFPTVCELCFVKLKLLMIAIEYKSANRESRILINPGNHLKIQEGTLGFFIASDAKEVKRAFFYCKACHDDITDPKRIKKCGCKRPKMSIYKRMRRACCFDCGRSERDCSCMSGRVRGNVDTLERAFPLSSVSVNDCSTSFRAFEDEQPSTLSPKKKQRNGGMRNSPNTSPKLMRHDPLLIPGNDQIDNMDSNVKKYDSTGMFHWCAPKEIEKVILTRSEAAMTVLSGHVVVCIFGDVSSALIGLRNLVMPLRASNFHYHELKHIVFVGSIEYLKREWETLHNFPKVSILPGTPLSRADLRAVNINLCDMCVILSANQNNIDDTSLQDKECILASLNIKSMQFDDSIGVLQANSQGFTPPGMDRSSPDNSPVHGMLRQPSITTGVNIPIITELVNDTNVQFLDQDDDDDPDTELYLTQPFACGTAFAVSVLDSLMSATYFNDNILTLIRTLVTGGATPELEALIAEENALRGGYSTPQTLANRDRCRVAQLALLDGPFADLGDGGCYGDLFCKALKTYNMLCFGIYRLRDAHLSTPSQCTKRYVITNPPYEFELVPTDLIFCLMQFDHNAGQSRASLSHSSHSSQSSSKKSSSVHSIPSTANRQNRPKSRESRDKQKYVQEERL

Iberiotoxin (IbTX) (from UniProt P24663)
Kd: 1.16 nM
